Experimental data taken from patent publication US20190300590A1 (PROTAGONIST THERAPEUTICS, published 2019).
*1 amine or outer side, *2 acyl side, *3 side chain or, on linkers, in order; H or OH if unused. Bridges are numbered along the chain shown (N, C = ends). Primed or numbered codes have the meaning given here. [ ]: non-standard residue; d: D form. Phe(4-(2-acetylaminoethoxy)) = 4-(2-acetamidoethoxy)-phenylalanine, CC(=O)NCCOc1ccc(C[C@H](N[*:1])C(=O)[*:2])cc1; Phe(4-OMe)(3) = O-methyl-L-tyrosine (4-methoxy-L-phenylalanine), COc1ccc(C[C@H](N[*:1])C(=O)[*:2])cc1; Phe(4-OMe) = 4-methoxy-L-phenylalanine (O-methyl-L-tyrosine), COc1ccc(C[C@H](N[*:1])C(=O)[*:2])cc1; Phe(3,4-Cl2) = N[C@@H](Cc1ccc(Cl)c(Cl)c1)C(=O)O; Phe(3,4-F2) = N[C@@H](Cc1ccc(F)c(F)c1)C(=O)O; Abu(4-yl) = O=C([C@H](CC[*:3])N[*:1])[*:2]; 1Nal = N[C@@H](Cc1cccc2ccccc12)C(=O)O; 2Nal = N[C@@H](Cc1ccc2ccccc2c1)C(=O)O; AEF = NCCOc1ccc(C[C@H](N)C(=O)O)cc1; αMeL = CC(C)C[C@](C)(N)C(=O)O; Suc = O=C(CCC(=O)[*:2])[*:1]; αMeK = C[C@](N)(CCCCN)C(=O)O; Abu = CC[C@H](N)C(=O)O; Dap = NC[C@H](N)C(=O)O; Aib = CC(C)(N)C(=O)O

Columns and labels:
Rat IL-23R_huFC = Rat IL-23R_huFC (rat); assay: rat ELISA vs IL-23
IL23R_huFC [1] = molecular target: T1, IL23R_huFC (human, UniProt Q5VWK5 24-353); assay: human ELISA vs IL-23
T1 sequence (looked up): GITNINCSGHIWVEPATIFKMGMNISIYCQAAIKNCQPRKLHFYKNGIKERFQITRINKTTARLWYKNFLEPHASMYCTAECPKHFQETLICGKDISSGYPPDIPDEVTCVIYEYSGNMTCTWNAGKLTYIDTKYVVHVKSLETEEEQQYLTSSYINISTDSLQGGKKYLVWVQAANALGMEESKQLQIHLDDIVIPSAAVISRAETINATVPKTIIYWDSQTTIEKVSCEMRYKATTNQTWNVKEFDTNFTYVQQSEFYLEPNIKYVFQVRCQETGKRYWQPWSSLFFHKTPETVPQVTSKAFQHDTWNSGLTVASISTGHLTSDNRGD

[2] = molecular target: T2, IL-23R on human cells (IL-23R-expressing DB cells; human NK cells) (human, UniProt Q5VWK5 24-629); assay: cell-based or functional assay
T2 sequence (looked up): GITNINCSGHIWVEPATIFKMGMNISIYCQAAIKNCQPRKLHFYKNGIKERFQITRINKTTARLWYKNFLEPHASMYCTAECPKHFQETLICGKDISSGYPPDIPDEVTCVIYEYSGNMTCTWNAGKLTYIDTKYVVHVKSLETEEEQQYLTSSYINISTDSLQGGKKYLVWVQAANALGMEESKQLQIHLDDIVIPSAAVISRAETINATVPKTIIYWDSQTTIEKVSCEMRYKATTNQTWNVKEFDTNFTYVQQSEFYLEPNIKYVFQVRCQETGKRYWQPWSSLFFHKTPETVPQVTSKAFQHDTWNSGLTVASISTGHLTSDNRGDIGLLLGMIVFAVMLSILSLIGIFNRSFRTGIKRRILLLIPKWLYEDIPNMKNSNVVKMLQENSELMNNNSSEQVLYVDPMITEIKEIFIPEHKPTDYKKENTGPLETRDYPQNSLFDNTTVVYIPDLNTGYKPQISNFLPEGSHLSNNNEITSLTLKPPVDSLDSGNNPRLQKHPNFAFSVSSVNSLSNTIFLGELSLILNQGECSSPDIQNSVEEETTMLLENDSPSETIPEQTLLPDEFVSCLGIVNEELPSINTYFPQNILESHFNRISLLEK

IL23R_huFC [3] = molecular target: T1, IL23R_huFC; assay: human ELISA vs IL-23; remark: listed apart in the source
IL23R_huFC [4] = molecular target: T3, IL23R_huFC (human, UniProt Q5VWK5 24-353); assay: IL23-IL23R competitive ELISA
T3 sequence (looked up): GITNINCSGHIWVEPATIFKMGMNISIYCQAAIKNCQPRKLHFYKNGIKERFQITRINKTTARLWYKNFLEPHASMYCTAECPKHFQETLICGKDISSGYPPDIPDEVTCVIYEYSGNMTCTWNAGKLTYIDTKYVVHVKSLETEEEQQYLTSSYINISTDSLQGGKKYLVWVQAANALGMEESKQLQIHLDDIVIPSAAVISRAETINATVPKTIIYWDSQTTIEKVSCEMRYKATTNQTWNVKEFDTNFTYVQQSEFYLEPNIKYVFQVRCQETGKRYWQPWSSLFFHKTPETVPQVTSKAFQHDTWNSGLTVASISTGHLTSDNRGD

B1: Ac-E-Cyclo-[[Abu]-QTWQC]-[Phe[4-(2-aminoethoxy)]]-[2-Nal]-[α-MeLys]-ENN-NH2 (peptide)
peptide: Ac-E[Abu(4-yl)]QTWQC[AEF][2Nal][αMeK]ENN-NH2
modifications: thioether 2-7
SMILES: CC(=O)N[C@@H](CCC(=O)O)C(=O)N[C@H]1CCSC[C@@H](C(=O)N[C@@H](Cc2ccc(OCCN)cc2)C(=O)N[C@@H](Cc2ccc3ccccc3c2)C(=O)N[C@@](C)(CCCCN)C(=O)N[C@@H](CCC(=O)O)C(=O)N[C@@H](CC(N)=O)C(=O)N[C@@H](CC(N)=O)C(N)=O)NC(=O)[C@H](CCC(N)=O)NC(=O)[C@H](Cc2c[nH]c3ccccc23)NC(=O)[C@H]([C@@H](C)O)NC(=O)[C@H](CCC(N)=O)NC1=O
- IC50 (Rat IL-23R_huFC): < 10 nM
- IC50 (IL23R_huFC [1]): < 10 nM
- pStat3 HTRF IC50 [2]: < 10 nM

Binder: FXQTWQCFXKENN (as bracketed in name; thioether cyclo) [Ac-F-Cyclo-[[Abu]-QTWQC]]-[Phe[4-(2-aminoethoxy)]]-[2-Nal]-[α-MeLys]-ENN-NH2]
- IC50 (Rat IL-23R_huFC): < 10 nM

B2: Ac-Leu-Cyclo-[[Abu]-QTWQC]-[Phe[4-(2-aminoethoxy)]]-[2-Nal]-[α-MeLys]-ENN-NH2 (peptide)
peptide: Ac-L[Abu(4-yl)]QTWQC[AEF][2Nal][αMeK]ENN-NH2
modifications: thioether 2-7
SMILES: CC(=O)N[C@@H](CC(C)C)C(=O)N[C@H]1CCSC[C@@H](C(=O)N[C@@H](Cc2ccc(OCCN)cc2)C(=O)N[C@@H](Cc2ccc3ccccc3c2)C(=O)N[C@@](C)(CCCCN)C(=O)N[C@@H](CCC(=O)O)C(=O)N[C@@H](CC(N)=O)C(=O)N[C@@H](CC(N)=O)C(N)=O)NC(=O)[C@H](CCC(N)=O)NC(=O)[C@H](Cc2c[nH]c3ccccc23)NC(=O)[C@H]([C@@H](C)O)NC(=O)[C@H](CCC(N)=O)NC1=O
- IC50 (Rat IL-23R_huFC): < 10 nM
- IC50 (IL23R_huFC [1]): < 10 nM
- pStat3 HTRF IC50 [2]: < 10 nM

Binder: TXQTWQCFXKENN (as bracketed in name; thioether cyclo) [Ac-T-Cyclo-[[Abu]-QTWQC]-[Phe[4-(2-aminoethoxy)]]-[2-Nal]-[α-MeLys]-ENN-NH2]
- IC50 (Rat IL-23R_huFC): < 10 nM

Binder: Ac-[dR][Abu]QTWQC[AEF][2Nal][αMeK]ENN-NH2 (thioether 2-7) [Ac-[(D)Arg]-Cyclo-[[Abu]-QTWQC]-[Phe[4-(2-aminoethoxy)]]-[2-Nal]-[α-MeLys]-ENN-NH2]
- IC50 (Rat IL-23R_huFC): < 10 nM
- IC50 (IL23R_huFC [1]): < 10 nM
- pStat3 HTRF IC50 [2]: < 10 nM

Binder: Ac-[dQ][Abu]QTWQC[AEF][2Nal][αMeK]ENN-NH2 (thioether 2-7) [Ac-[(D)Gln]-Cyclo-[[Abu]-QTWQC]-[Phe[4-(2-aminoethoxy)]]-[2-Nal]-[α-MeLys]-ENN-NH2]
- IC50 (Rat IL-23R_huFC): < 10 nM
- IC50 (IL23R_huFC [1]): < 10 nM
- pStat3 HTRF IC50 [2]: < 10 nM

Binder: Ac-[dE][Abu]QTWQC[AEF][2Nal][αMeK]ENN-NH2 (thioether 2-7) [Ac-(D)Glu-[Cyclo-[[Abu]-QTWQC]-[Phe[4-(2-aminoethoxy)]]-[2-Nal]-[α-MeLys]-ENN-NH2]
- IC50 (Rat IL-23R_huFC): < 10 nM
- IC50 (IL23R_huFC [1]): < 10 nM
- pStat3 HTRF IC50 [2]: < 10 nM

Binder: Ac-[Abu]QTWQC[AEF][2Nal][αMeK]K(Ac)NG-NH2 (thioether 1-6) [Ac-Cyclo-[[Abu]-QTWQC]-[Phe[4-(2-aminoethoxy)]]-[2-Nal]-[α-MeLys]-[Lys(Ac)]-NG-NH2]
- IC50 (Rat IL-23R_huFC): < 10 nM

Binder: XQTWQCFWXENG (as bracketed in name; thioether cyclo) [Ac-Cyclo-[[Abu]-QTWQC]-[Phe[4-(2-aminoethoxy)]]-W-[Orn]-ENG-NH2]
- IC50 (IL23R_huFC [3]): 25 to 100 nM

Binder: Ac-[Abu]QTWQC[Phe(4-(2-acetylaminoethoxy))][2Nal][αMeK](Ac)K(Ac)NG-NH2 (thioether 1-6) [Ac-Cyclo-[[Abu]-QTWQC]-[Phe[4-(2-(acetyl-aminoethoxy)]]-[2-Nal]-[α-MeLys(Ac)]-[Lys(Ac)]-NG-NH2]
- IC50 (Rat IL-23R_huFC): < 10 nM

Binder: Suc-[Abu]QTWQC[AEF][2Nal][αMeK]K(Ac)NG-NH2 (thioether 1-6) [Succicinyl-Cyclo-[[Abu]-QTWQC]-[Phe[4-(2-aminoethoxy)]]-[2-Nal]-[α-MeLys]-[Lys(Ac)]-NG-NH2]
- IC50 (Rat IL-23R_huFC): < 10 nM

Binder: Ac-[Abu][Dap]TWQC[AEF][Phe(3,4-Cl2)][αMeK]K(Ac)NG-NH2 (thioether 1-6) [Ac-Cyclo-[[Abu]-DapTWQC]-[Phe[4-(2-aminoethoxy)]]-[Phe(3,4-Cl2)]-[α-MeLys]--[Lys(Ac)]-NG-NH2]
- IC50 (IL23R_huFC [3]): 25 to 100 nM

Binder: Ac-[Abu]QTWQC[Phe(4-OMe)(3)][2Nal][αMeK]K(Ac)NGGE-NH2 (thioether 1-6) [Ac-Cyclo-[[Abu]-QTWQC]-[Phe(4-OMe)]-[2-Nal][α-MeLys]-[Lys(Ac)]-NGGE-NH2]
- IC50 (IL23R_huFC [3]): 25 to 100 nM

Binder: Ac-[Abu]QTWQC[Phe(3,4-F2)][2Nal][Aib]ENG-NH2 (thioether 1-6) [Ac-Cyclo-[[Abu]-QTWQC]-[Phe(3,4-F2)]-[2-Nal]-[Aib]-ENG-NH2]
- IC50 (IL23R_huFC [3]): 25 to 100 nM

Binder: Ac-[Abu]QTWQC[Phe(4-OMe)][2Nal][αMeL]ENG[dK]-NH2 (thioether 1-6) [Ac-Cyclo-[[Abu]-QTWQC]-[Phe(4-OMe)]-[2-Nal]-[α-MeLeu]-ENG-[(D)Lys]-NH2]
- IC50 (IL23R_huFC [3]): 25 to 100 nM

B3: Ac-CADWVCY-[1-Nal]-VTFG-NH2 (peptide)
peptide: Ac-CADWVCY[1Nal]VTFG-NH2
modifications: disulfide 1-6
SMILES: CC(=O)N[C@H]1CSSC[C@@H](C(=O)N[C@@H](Cc2ccc(O)cc2)C(=O)N[C@@H](Cc2cccc3ccccc23)C(=O)N[C@H](C(=O)N[C@H](C(=O)N[C@@H](Cc2ccccc2)C(=O)NCC(N)=O)[C@@H](C)O)C(C)C)NC(=O)[C@H](C(C)C)NC(=O)[C@H](Cc2c[nH]c3ccccc23)NC(=O)[C@H](CC(=O)O)NC(=O)[C@H](C)NC1=O
- IC50 (IL23R_huFC [4]): 500 to 1000 nM
